Measurements reported in the supplement of paper PMC9112550, “Optimization of the antimicrobial peptide Bac7 by deep mutational scanning” (BMC Biology, 2022).

Test system: Escherichia coli TOP10
Experiment: shrunken log2 fold change of peptide-encoding DNA abundance (4.5 h post-induction vs induction); higher = less antimicrobial activity (less host growth inhibition)
Conditions: time post-induction: 4.5 h; library: site-saturation at positions 5, 18, 19, 20
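Note: peptides expressed intracellularly from a pBAD plasmid library in pooled LB shake-flask culture, induced with 0.3% L-arabinose, DNA abundance read by NGS, three biological replicates, DESeq2 with apeglm shrinkage.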

## RRIRKRPPRLPRPRPRPNFYPRP
  shrunken log2 fold change: 0.0337

## RRIRHRPPRLPRPRPRPNAYPRP
  shrunken log2 fold change: -0.219

## RRIRRRPPRLPRPRPRPARMPRP
  shrunken log2 fold change: 0.173

## RRIRSRPPRLPRPRPRPMGSPRP
  shrunken log2 fold change: -0.205

## RRIRTRPPRLPRPRPRPVCSPRP
  shrunken log2 fold change: -0.247

## RRIRSRPPRLPRPRPRPVDRPRP
  shrunken log2 fold change: 0.0715

## RRIRKRPPRLPRPRPRPTRMPRP
  shrunken log2 fold change: 0.651

## RRIRQRPPRLPRPRPRPMWLPRP
  shrunken log2 fold change: -0.22

## RRIRLRPPRLPRPRPRPADVPRP
  shrunken log2 fold change: -0.0469

## RRIRPRPPRLPRPRPRPMMCPRP
  shrunken log2 fold change: -0.147

## RRIRLRPPRLPRPRPRPAWEPRP
  shrunken log2 fold change: 0.185

## RRIRWRPPRLPRPRPRPVHGPRP
  shrunken log2 fold change: 0.492

## RRIRWRPPRLPRPRPRPPIYPRP
  shrunken log2 fold change: 0.0337

## RRIRNRPPRLPRPRPRPNGNPRP
  shrunken log2 fold change: -0.0621

## RRIRWRPPRLPRPRPRPFKWPRP
  shrunken log2 fold change: -0.223

## RRIRGRPPRLPRPRPRPMVPPRP
  shrunken log2 fold change: 0.202

## RRIRERPPRLPRPRPRPQHHPRP
  shrunken log2 fold change: -0.771

## RRIRVRPPRLPRPRPRPLQNPRP
  shrunken log2 fold change: 0.0527

## RRIRRRPPRLPRPRPRPNWMPRP
  shrunken log2 fold change: 0.0739

## RRIRHRPPRLPRPRPRPYKDPRP
  shrunken log2 fold change: -0.017

## RRIRCRPPRLPRPRPRPFEDPRP
  shrunken log2 fold change: -0.019

## RRIRHRPPRLPRPRPRPQWHPRP
  shrunken log2 fold change: -0.299

## RRIRTRPPRLPRPRPRPPGVPRP
  shrunken log2 fold change: 0.182

## RRIRERPPRLPRPRPRPGVIPRP
  shrunken log2 fold change: -0.0985

## RRIRMRPPRLPRPRPRPYHQPRP
  shrunken log2 fold change: -0.297

## RRIRVRPPRLPRPRPRPKRFPRP
  shrunken log2 fold change: -0.0543

## RRIRSRPPRLPRPRPRPRQFPRP
  shrunken log2 fold change: 0.165

## RRIRCRPPRLPRPRPRPEWIPRP
  shrunken log2 fold change: -0.151

## RRIRWRPPRLPRPRPRPMTHPRP
  shrunken log2 fold change: -0.0884

## RRIRARPPRLPRPRPRPRAHPRP
  shrunken log2 fold change: 0.256

## RRIRCRPPRLPRPRPRPVAVPRP
  shrunken log2 fold change: -0.043

## RRIRKRPPRLPRPRPRPNMSPRP
  shrunken log2 fold change: -0.0139

## RRIRSRPPRLPRPRPRPCWNPRP
  shrunken log2 fold change: -0.296

## RRIRTRPPRLPRPRPRPVGFPRP
  shrunken log2 fold change: -0.225

## RRIRPRPPRLPRPRPRPETSPRP
  shrunken log2 fold change: 0.328

## RRIRVRPPRLPRPRPRPPLWPRP
  shrunken log2 fold change: 0.646

## RRIRDRPPRLPRPRPRPTHAPRP
  shrunken log2 fold change: 0.148

## RRIRQRPPRLPRPRPRPNPIPRP
  shrunken log2 fold change: 0.0989

## RRIRYRPPRLPRPRPRPSRLPRP
  shrunken log2 fold change: -0.114

## RRIRDRPPRLPRPRPRPKNTPRP
  shrunken log2 fold change: -0.226

## RRIRDRPPRLPRPRPRPGHNPRP
  shrunken log2 fold change: -0.0961

## RRIRCRPPRLPRPRPRPTWVPRP
  shrunken log2 fold change: 0.342

## RRIRCRPPRLPRPRPRPWLHPRP
  shrunken log2 fold change: -0.305

## RRIRERPPRLPRPRPRPHIIPRP
  shrunken log2 fold change: -0.412

## RRIRGRPPRLPRPRPRPEGVPRP
  shrunken log2 fold change: 1.48

## RRIRGRPPRLPRPRPRPVYLPRP
  shrunken log2 fold change: -0.33

## RRIRSRPPRLPRPRPRPCSRPRP
  shrunken log2 fold change: -0.179

## RRIRPRPPRLPRPRPRPIMRPRP
  shrunken log2 fold change: -0.0819

## RRIRFRPPRLPRPRPRPRWQPRP
  shrunken log2 fold change: 0.229

## RRIRSRPPRLPRPRPRPWYDPRP
  shrunken log2 fold change: -0.511

## RRIRSRPPRLPRPRPRPNARPRP
  shrunken log2 fold change: -0.119

## RRIRARPPRLPRPRPRPIMMPRP
  shrunken log2 fold change: -0.245

## RRIRNRPPRLPRPRPRPWPVPRP
  shrunken log2 fold change: -0.153

## RRIRPRPPRLPRPRPRPHYNPRP
  shrunken log2 fold change: -0.769

## RRIRTRPPRLPRPRPRPIRDPRP
  shrunken log2 fold change: -0.288

## RRIRCRPPRLPRPRPRPLIWPRP
  shrunken log2 fold change: -0.177

## RRIRQRPPRLPRPRPRPKMVPRP
  shrunken log2 fold change: -0.0201

## RRIRCRPPRLPRPRPRPRVLPRP
  shrunken log2 fold change: 3.12

## RRIRLRPPRLPRPRPRPSGWPRP
  shrunken log2 fold change: 0.0673

## RRIRKRPPRLPRPRPRPSDMPRP
  shrunken log2 fold change: 0.0199

## RRIRMRPPRLPRPRPRPFHWPRP
  shrunken log2 fold change: -0.184

## RRIRWRPPRLPRPRPRPMFCPRP
  shrunken log2 fold change: -0.0733

## RRIRWRPPRLPRPRPRPCPSPRP
  shrunken log2 fold change: 0.0767

## RRIRTRPPRLPRPRPRPGNEPRP
  shrunken log2 fold change: -0.000989

## RRIRTRPPRLPRPRPRPVFNPRP
  shrunken log2 fold change: -0.65

## RRIRNRPPRLPRPRPRPNAQPRP
  shrunken log2 fold change: -0.119

## RRIRMRPPRLPRPRPRPQKVPRP
  shrunken log2 fold change: 0.238

## RRIRNRPPRLPRPRPRPKCNPRP
  shrunken log2 fold change: -0.819

## RRIRIRPPRLPRPRPRPHMTPRP
  shrunken log2 fold change: -0.64

## RRIRVRPPRLPRPRPRPAKWPRP
  shrunken log2 fold change: 0.153

## RRIRIRPPRLPRPRPRPKDFPRP
  shrunken log2 fold change: -0.457

## RRIRDRPPRLPRPRPRPRMIPRP
  shrunken log2 fold change: -0.237

## RRIRTRPPRLPRPRPRPYRCPRP
  shrunken log2 fold change: -0.123

## RRIRMRPPRLPRPRPRPLCNPRP
  shrunken log2 fold change: 0.0857

## RRIRARPPRLPRPRPRPLQIPRP
  shrunken log2 fold change: 0.0194

## RRIRYRPPRLPRPRPRPDWIPRP
  shrunken log2 fold change: -0.589

## RRIRFRPPRLPRPRPRPVMHPRP
  shrunken log2 fold change: -0.461

## RRIRNRPPRLPRPRPRPPWHPRP
  shrunken log2 fold change: 0.129

## RRIRHRPPRLPRPRPRPNTHPRP
  shrunken log2 fold change: -0.856

## RRIRDRPPRLPRPRPRPWEMPRP
  shrunken log2 fold change: 0.335

## RRIRKRPPRLPRPRPRPSTKPRP
  shrunken log2 fold change: 0.143

## RRIRIRPPRLPRPRPRPRELPRP
  shrunken log2 fold change: -0.019

## RRIRKRPPRLPRPRPRPSGDPRP
  shrunken log2 fold change: 0.485

## RRIRCRPPRLPRPRPRPFTYPRP
  shrunken log2 fold change: -0.631

## RRIRSRPPRLPRPRPRPVNVPRP
  shrunken log2 fold change: -0.156

## RRIRARPPRLPRPRPRPTQGPRP
  shrunken log2 fold change: 0.905

## RRIRLRPPRLPRPRPRPDETPRP
  shrunken log2 fold change: -0.0184

## RRIRARPPRLPRPRPRPKWWPRP
  shrunken log2 fold change: 0.149

## RRIRKRPPRLPRPRPRPYDIPRP
  shrunken log2 fold change: -0.119

## RRIRERPPRLPRPRPRPVEDPRP
  shrunken log2 fold change: 0.0178

## RRIRARPPRLPRPRPRPWKMPRP
  shrunken log2 fold change: -0.235
